Key:
[1] = target: T1, CRD1-3; assay: ELISA, coated CD137-Fc protein 2 µg/mL, antibody 10 or 5 µg/mL; absorbance 620 nm divided by that of the uncoated well
T1 construct: also called fragmented human CD137-Fc fusion protein CRD1-3

[2] = target: T2, CRD2-4; assay: as above
T2 construct: also called fragmented human CD137-Fc fusion protein CRD2-4

[3] = target: T3, CRD3-4; assay: as above
T3 construct: also called fragmented human CD137-Fc fusion protein CRD3-4

[4] = target: full-length human CD137-Fc fusion protein (human); assay: as above
Chain of full-length human CD137-Fc fusion protein (human) (chain, as listed by the source limits assumed): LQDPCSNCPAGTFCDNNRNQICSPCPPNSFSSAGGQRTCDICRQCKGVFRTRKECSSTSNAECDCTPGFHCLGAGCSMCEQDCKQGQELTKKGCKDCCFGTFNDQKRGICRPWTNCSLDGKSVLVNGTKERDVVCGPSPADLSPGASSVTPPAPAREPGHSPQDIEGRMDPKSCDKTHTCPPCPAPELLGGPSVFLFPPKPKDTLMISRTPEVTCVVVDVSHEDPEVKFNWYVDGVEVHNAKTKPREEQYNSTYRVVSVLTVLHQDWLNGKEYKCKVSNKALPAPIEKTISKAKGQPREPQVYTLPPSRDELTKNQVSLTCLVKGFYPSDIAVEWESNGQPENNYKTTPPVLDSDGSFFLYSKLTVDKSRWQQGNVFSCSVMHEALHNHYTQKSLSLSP

[5] = target: T4, CRD2-3; assay: as above
T4 construct: also called fragmented human CD137-Fc fusion protein CRD2-3
T4 sequence (chain, as listed by the source limits assumed): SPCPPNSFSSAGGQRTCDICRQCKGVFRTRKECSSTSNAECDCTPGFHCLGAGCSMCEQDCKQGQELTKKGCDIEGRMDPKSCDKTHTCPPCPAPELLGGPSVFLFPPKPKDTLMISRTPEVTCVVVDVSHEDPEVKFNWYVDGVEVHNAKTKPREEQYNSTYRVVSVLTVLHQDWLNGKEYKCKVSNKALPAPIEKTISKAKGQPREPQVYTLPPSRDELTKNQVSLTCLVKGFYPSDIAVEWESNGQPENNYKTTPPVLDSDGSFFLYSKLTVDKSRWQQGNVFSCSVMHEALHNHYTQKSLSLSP

[6] = target: T1, CRD1-3; assay: ELISA, coated CD137-Fc protein 2 µg/mL, antibody 10 or 5 µg/mL, absorbance 620 nm; Non (uncoated well) 0.165
[7] = target: T2, CRD2-4; assay: as above
[8] = target: T3, CRD3-4; assay: as above
[9] = target: full-length human CD137-Fc fusion protein (human); assay: as above
[10] = target: T4, CRD2-3; assay: as above
[11] = target: T5, CRD1; assay: ELISA, coated CD137-Fc protein 2 µg/mL, antibody 10 or 5 µg/mL; absorbance 620 nm divided by that of the uncoated well
T5 construct: also called fragmented human CD137-Fc fusion protein CRD1
T5 sequence (chain, as listed by the source limits assumed): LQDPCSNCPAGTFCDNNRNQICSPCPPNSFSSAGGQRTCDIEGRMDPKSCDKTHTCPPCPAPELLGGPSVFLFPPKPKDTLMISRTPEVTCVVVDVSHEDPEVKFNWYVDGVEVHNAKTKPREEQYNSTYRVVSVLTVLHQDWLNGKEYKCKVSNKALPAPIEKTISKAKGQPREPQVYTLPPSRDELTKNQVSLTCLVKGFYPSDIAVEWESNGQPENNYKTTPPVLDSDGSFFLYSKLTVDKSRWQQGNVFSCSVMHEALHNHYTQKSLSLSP

[12] = target: T6, CRD1-2; assay: as above
T6 construct: also called fragmented human CD137-Fc fusion protein CRD1-2
T6 sequence (chain, as listed by the source limits assumed): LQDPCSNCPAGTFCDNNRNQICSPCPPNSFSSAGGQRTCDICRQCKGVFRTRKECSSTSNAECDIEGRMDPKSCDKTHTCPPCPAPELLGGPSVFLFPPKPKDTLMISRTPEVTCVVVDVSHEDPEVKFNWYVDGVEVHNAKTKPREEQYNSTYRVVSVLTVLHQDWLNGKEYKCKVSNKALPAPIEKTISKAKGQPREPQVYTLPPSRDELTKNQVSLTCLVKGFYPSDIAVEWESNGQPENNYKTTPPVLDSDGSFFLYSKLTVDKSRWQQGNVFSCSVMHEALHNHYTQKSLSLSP

[13] = target: T5, CRD1; assay: ELISA, coated CD137-Fc protein 2 µg/mL, antibody 10 or 5 µg/mL, absorbance 620 nm; Non (uncoated well) 0.4435
[14] = target: T1, CRD1-3; assay: as above
[15] = target: T2, CRD2-4; assay: as above
[16] = target: T3, CRD3-4; assay: as above
[17] = target: full-length human CD137-Fc fusion protein (human); assay: as above
[18] = target: T4, CRD2-3; assay: as above
[19] = target: T6, CRD1-2; assay: as above
[20] = target: T5, CRD1; assay: ELISA, coated CD137-Fc protein 2 µg/mL, antibody 10 or 5 µg/mL, absorbance 620 nm; Non (uncoated well) 0.055
Description: (§1) Fragmented human CD137-Fc fusion proteins were diluted to 2 μg/mL in an aqueous sodium carbonate solution adjusted to pH9.6. Fifty μL of a diluted fragmented human CD137-Fc fusion protein was added individually to each well of a Nunc MaxiSorp flat-bottom 96 well plate (Nunc). This was allowed to stand at 4° C. overnight or longer, and then the plate was allowed to stand at room temperature for one hour so that the plate has the same temperature as the room temperature. The solution containing the fragmented human CD137-Fc fusion protein was removed by tilting, and each well was washed three times with 300 μL of Wash buffer (TBS containing 0.1% Tween20, TaKaRa). Next, 150 μL of blocking buffer (TBS containing 2% BSA) was added to each well, and this was allowed to stand for one hour or more. The blocking buffer was removed by tilting, and each well was washed three times with Wash Buffer in a similar manner to an earlier step. Then, 50 μL of an antibody solution prepared in advance by dilution with TBS to 10 μg/mL or 5 μg/mL was added to each well. This was subjected to a speed of 600 rpm or so for one hour at room temperature to bind the antibody to the immobilized antigen. […] 100 μL of a secondary antibody solution produced by 1000-fold dilution with TBS containing 0.1% Tween20 was added to each well. For the secondary antibody, ANTIBODY ALKALINE PHOSPHATASE CONJUGATE HUMAN IMMUNOGLOBULIN ABSORBED Goat Anti-Human Kappa Alkaline Phosphate from BIOSOURCE was used in the case of antibodies carrying a Kappa chain, and Human Lambda Light Chain Antibody; Goat anti-Human Lambda Light Chain Antibody Alkaline Phosphatase Conjugated from BETHYL LABORATORIES INC. was used in the case of antibodies carrying a Lambda chain. […] Color development was performed using the BluePhos Microwell kit from KPL. After the chromogenic reaction was stopped using the AP stop solution from KPL, the absorbance was measured at 620 nm on an absorptiometer.

[21] = target: T3, CRD3-4; assay: as above
Description: as §1

[22] = target: T6, CRD1-2; assay: as above
Description: as §1

[23] = target: T5, CRD1; assay: ELISA, coated CD137-Fc protein 2 µg/mL, antibody 10 or 5 µg/mL, absorbance 620 nm; Non (uncoated well) 0.216
[24] = target: T1, CRD1-3; assay: as above
[25] = target: T2, CRD2-4; assay: as above
[26] = target: T3, CRD3-4; assay: as above
[27] = target: full-length human CD137-Fc fusion protein (human); assay: as above
[28] = target: T4, CRD2-3; assay: as above
[29] = target: T6, CRD1-2; assay: as above

T3 sequence (chain, as listed by the source limits assumed): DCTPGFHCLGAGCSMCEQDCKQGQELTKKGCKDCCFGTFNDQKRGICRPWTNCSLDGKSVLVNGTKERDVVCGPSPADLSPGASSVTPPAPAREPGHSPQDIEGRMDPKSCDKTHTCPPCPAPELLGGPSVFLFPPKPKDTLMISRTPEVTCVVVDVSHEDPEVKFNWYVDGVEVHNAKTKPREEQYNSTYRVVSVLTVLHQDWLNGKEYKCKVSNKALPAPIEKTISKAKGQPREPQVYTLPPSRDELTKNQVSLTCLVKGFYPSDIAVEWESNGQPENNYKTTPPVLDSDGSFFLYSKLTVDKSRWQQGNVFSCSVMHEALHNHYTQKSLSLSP
T2 sequence (chain, as listed by the source limits assumed): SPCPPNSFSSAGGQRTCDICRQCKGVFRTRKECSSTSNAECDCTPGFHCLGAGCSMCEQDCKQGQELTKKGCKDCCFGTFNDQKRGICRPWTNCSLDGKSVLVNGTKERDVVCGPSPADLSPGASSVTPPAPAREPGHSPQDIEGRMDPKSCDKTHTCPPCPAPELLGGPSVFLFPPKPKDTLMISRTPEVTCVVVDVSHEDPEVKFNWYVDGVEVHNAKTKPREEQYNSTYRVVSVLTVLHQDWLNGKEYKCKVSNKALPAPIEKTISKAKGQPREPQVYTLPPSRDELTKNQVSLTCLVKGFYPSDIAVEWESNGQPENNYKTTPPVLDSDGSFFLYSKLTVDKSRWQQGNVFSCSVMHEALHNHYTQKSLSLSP
T1 sequence (chain, as listed by the source limits assumed): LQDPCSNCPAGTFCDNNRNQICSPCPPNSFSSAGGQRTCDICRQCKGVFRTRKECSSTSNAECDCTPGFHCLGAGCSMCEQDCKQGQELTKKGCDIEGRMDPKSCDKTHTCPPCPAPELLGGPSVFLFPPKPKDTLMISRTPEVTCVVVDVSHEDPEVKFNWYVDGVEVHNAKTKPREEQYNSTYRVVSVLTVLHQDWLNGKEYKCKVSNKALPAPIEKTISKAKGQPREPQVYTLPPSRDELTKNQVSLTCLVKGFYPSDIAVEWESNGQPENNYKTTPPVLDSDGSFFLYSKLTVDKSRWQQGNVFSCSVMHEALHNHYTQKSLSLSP

B1: R6 (antibody, V domains shown)
VH: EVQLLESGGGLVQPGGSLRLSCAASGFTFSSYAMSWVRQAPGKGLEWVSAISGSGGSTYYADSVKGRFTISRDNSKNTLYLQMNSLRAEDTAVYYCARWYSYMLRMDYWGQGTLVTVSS
VL: DIQMTQSPSSLSASVGDRVTITCRASQSISSYLNWYQQKPGKAPKLLIYAASSLQSGVPSRFSGSGSGTDFTLTISSLQPEDFATYYCQQFHSFPLTFGGGTKVEIK
notes: Synthetic library clone; Fab on phage in the phage ELISA
Ratio with respect to Non-Coating [1]: 13.9
Ratio with respect to Non-Coating [2]: 14.2
Ratio with respect to Non-Coating [3]: 16.6
Ratio with respect to Non-Coating [4]: 13.1
Ratio with respect to Non-Coating [5]: 15.5
ELISA color development level [6]: 2.3
ELISA color development level [7]: 2.34
ELISA color development level [8]: 2.73
ELISA color development level [9]: 2.16
ELISA color development level [10]: 2.56

B2: R7 (antibody, V domains shown)
VH: QVQLLESGGGLVQPGGSLRLSCAASGFTFSSYAMSWVRQAPGKGLEWVSAISGSGGSTYYADSVKGRFTISRDNSKNTLYLQMNSLRAEDTAVYYCARDRAMYHPSFNYWGQGTLVTVSS
VL: DIQMTQSPSSLSASVGDRVTITCRASQSISSYLNWYQQKPGKAPKLLIYAASSLQSGVPSRFSGSGSGTDFTLTISSLQPEDFATYYCQQFNSYPLTFGGGTKVEIK
notes: as for B1
Ratio with respect to Non-Coating [11]: 1.4
Ratio with respect to Non-Coating [1]: 5
Ratio with respect to Non-Coating [2]: 4.9
Ratio with respect to Non-Coating [3]: 5.9
Ratio with respect to Non-Coating [4]: 4.3
Ratio with respect to Non-Coating [5]: 5.7
Ratio with respect to Non-Coating [12]: 1.8
ELISA color development level [13]: 0.61
ELISA color development level [14]: 2.23
ELISA color development level [15]: 2.19
ELISA color development level [16]: 2.63
ELISA color development level [17]: 1.92
ELISA color development level [18]: 2.52
ELISA color development level [19]: 0.814

B3: M (antibody, human IgG1, lambda, V domains shown)
VH: EVQLVQSGAEVKKPGESLRISCKGSGYSFSTYWISWVRQMPGKGLEWMGKIYPGDSYTNYSPSFQGQVTISADKSISTAYLQWSSLKASDTAMYYCARGYGIFDYWGQGTLVTVSS
VL: SYELTQPPSVSVSPGQTASITCSGDNIGDQYAHWYQQKPGQSPVLVIYQDKNRPSGIPERFSGSNSGNTATLTISGTQAMDEADYYCATYTGFGSLAVFGGGTKLTVLQ
notes: also called Control M
Ratio with respect to Non-Coating [3]: 41.1
ELISA color development level [20]: 0.093
ELISA color development level [21]: 2.26
ELISA color development level [22]: 0.085

B4: R5 (antibody, V domains shown)
VH: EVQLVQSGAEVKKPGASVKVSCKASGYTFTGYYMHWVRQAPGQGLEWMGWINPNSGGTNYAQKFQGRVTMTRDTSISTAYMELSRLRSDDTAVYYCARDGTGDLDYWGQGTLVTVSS
VL: QSALTQPRSVSGSPGQSVTISCTGTSSDVGVYDYVSWYQQFPGKAPKLMIYDVNKRPSGVPDRFSGSKSGNTASLTVSGLQAEDEADYYCCSYSGTDIRWLFGGGTKLTVL
notes: Naive library clone; Fab on phage in the phage ELISA
Ratio with respect to Non-Coating [11]: 1.3
Ratio with respect to Non-Coating [1]: 6.3
Ratio with respect to Non-Coating [2]: 1.2
Ratio with respect to Non-Coating [3]: 0.7
Ratio with respect to Non-Coating [4]: 8.7
Ratio with respect to Non-Coating [5]: 1.3
Ratio with respect to Non-Coating [12]: 7.9
ELISA color development level [23]: 0.278
ELISA color development level [24]: 1.36
ELISA color development level [25]: 0.25
ELISA color development level [26]: 0.161
ELISA color development level [27]: 1.88
ELISA color development level [28]: 0.274
ELISA color development level [29]: 1.7
